In paper PMC10388152 (PNAS Nexus, 2023):

Biological target: the molecule itself
Assay: dynamic light scattering

B1: C-terminal truncated ScBfr (ScBfr 1-152: residues 153-167 removed) (domain or fragment, Streptomyces coelicolor, UniProt Q9S2N0 1-152, looked up)
chain: MQGDPEVIEFLNEQLTAELTAINQYFLHAKLQDHKGWTKLAKYTRAESFDEMRHAEVLTDRILLLDGLPNYQRLFHVRVGQSVTEMFQADREVELEAIDRLRRGIEVMRAKHDITSANVFEAILADEEHHIDYLETQLDLIEKLGESLYLST
stoichiometry N: 24
